Data as given in patent US8343491B2, “Anti-HIMF antibodies to treat lung diseases” (The Johns Hopkins University, priority 2006, dated 2013).
“Also recorded” adds a separate entry of the source. Each block holds one molecule with its values, some of them ahead of it.

Experiments:
[1] = system: bone marrow cells; experiment: Cell migration assay (Transwell); format: cell-based, mouse
Description: FIGS. 6A-6D. CD45 positive cell migration was stimulated by HIMF and inhibited by BTK inhibitor. Bone marrow cells were cultured on cover glass in 12 well plates as described in FIG. 5A-5B. The cells were then treated with BSA (FIG. 6A) or HIMF (FIG. 6B and FIG. 6C) for 4 days and fixed with pre-cooled methanol before immunocytochemistry with the indicated first antibodies. DAPI staining was used to show the nuclei. […] 5×10^5 bone marrow cells in 2% fetal bovine serum DMEM culture medium were transferred to each transwell in the presence of 50 nM BSA, HIMF, or HIMF plus 25 μM LFM-A13, respectively. The cells were cultured for 6 hours, fixed in pre-cooled methanol and stained by Coomassie Blue solution. The cells growing on the surface of the membrane were removed after staining. Bone marrow cell migration was induced by HIMF and this induction was inhibited by BTK inhibitor LFM-A13 (FIG. 6D).
Cell migration assay. Bone marrow cells were detached with trypsin-EDTA, washed in serum-free medium, and then counted and adjusted to 10^6 cells/ml. […]
BTK stimulated the migration of bone marrow cells. […] Cell migration was further determined by partial trypsin digestion culture, leaving the cells to grow in colonies on a cover glass.

[2] = molecular target: T1, BTK (Mus musculus, UniProt P35991); experiment: Protein phosphorylation assay (BTK Y223) in bone marrow cells; format: cell-based; conditions: 50 nM HIMF, minutes
T1 construct: incubated with bone marrow cell lysate or hypoxia tissue homogenate for three hours; endogenous in cells; host or cells: lysate of cultured mouse bone marrow cells; in the second result, homogenate of mouse hind limb hypoxic tissue
T1 sequence (P35991 whole entry): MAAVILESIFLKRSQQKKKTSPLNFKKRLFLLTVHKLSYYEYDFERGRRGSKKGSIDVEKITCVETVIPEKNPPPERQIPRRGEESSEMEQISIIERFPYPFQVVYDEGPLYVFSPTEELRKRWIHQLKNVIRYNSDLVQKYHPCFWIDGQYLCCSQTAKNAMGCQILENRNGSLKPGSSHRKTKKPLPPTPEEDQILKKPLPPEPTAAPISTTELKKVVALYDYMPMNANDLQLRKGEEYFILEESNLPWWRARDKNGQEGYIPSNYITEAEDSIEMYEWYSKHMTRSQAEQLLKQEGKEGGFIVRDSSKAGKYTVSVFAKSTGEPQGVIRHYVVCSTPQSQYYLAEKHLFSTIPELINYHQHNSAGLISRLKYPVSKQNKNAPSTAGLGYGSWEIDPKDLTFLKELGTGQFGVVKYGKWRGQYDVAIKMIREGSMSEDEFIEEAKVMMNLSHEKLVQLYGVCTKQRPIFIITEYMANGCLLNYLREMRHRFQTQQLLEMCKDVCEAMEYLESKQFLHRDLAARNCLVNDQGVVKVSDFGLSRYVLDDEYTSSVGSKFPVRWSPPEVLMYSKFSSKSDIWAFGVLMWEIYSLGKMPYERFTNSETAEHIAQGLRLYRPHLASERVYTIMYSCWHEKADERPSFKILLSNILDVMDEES
Description: (§1) FIGS. 4A-4C. BTK self-phosphorylation in response to the treatment of HIMF. Three plates of primary cultured bone marrow cells that were passed from the same plate of cells were cultured to confluence and then treated with HIMF (5 minutes and 30 minutes), or without HIMF. The cell lysates were used for the Western blot. The membrane was first probed by anti-BTK phosphorylation (Y223) antibody and then was probed by anti-BTK antibody after stripping (FIG. 4A). Five plates of primary cultured bone marrow cells that were passed from same plates of cells were cultured to confluence and then treated with HIMF (2.5, 5, 10 and 20 minutes respectively) or without HIMF. The cell lysates were used for the Western blot. The membrane was first detected by anti-BTK phosphorylation (Y223) antibody and then by anti-tubulin antibody (FIG. 4B). The same samples were used for the detection of fyn phosphorylation (FIG. 4C). Phosphorylation of Y416 upregulates enzyme activity. Phosphorylation of Y528 negatively regulates enzyme activity.
(§2) Protein phosphorylation assays. […] The supernatants of the samples were quantified for protein concentration and subjected to electrophoresis on a 4-15% SDS-polyacrylamide gel (Bio-Rad). […]

[3] = system: Fyn; experiment: Fyn phosphorylation in bone marrow cells; format: cell-based, mouse; conditions: bone marrow cells stimulated with HIMF
Description: as §1, §2

[4] = system: hindlimb ischemia tissues; experiment: Mouse hindlimb ischemic model, agarose gel implant; format: in vivo; conditions: 100 nM HIMF in 2% agarose gel implanted, two weeks, versus BSA gel
Description: FIGS. 7A-7B. […] Mouse hind limb ischemia model was established and agarose gel containing 100 nM BSA or 100 nM HIMF (gels were cut into 2×5×8 mm pieces) were buried subcutaneously at the sites of ischemia. Two weeks later, the ischemic tissues were collected for immunocytochemistry. The tissue treated by HIMF (FIG. 7B) was shown increasing in CD34 positive cells comparing to that of BSA treated tissue (FIG. 7A).
Mouse hindlimb ischemic model. Animals were subjected to left femoral artery ligation and excision to create unilateral hind limb ischemia. For each animal, 25 mg/kg ketamine plus 10 mg/kg xylazine was injected subcutaneously. Skin incisions were performed at the middle portion of the left hind limb overlying the femoral artery. The femoral artery was gently isolated. First the proximal portion and then the distal portion of the femoral artery were ligated, and then other arterial branches as well as veins were dissected free and excised. The overlying skin was closed using two surgical staples. Tissue in the hypoxia area was removed and homogenized in TBST buffer two weeks after the operation.
HIMF promoted angiogenesis in hypoxic tissues. Hypoxia can induce pulmonary artery adventitial remodeling and neovascularization. […]

[5] = system: bone marrow cells; experiment: Cell migration out of colony (partial trypsin digestion culture); format: cell-based, mouse; conditions: 50 nM HIMF, 2% FBS DMEM, four days
Description: FIGS. 5A-5B. HIMF stimulated bone marrow cell migration. Bone marrow cells were partially digested by trypsin-EDTA solution, washed by PBS and then sucked up and transferred to twelve well plates using a 1000 μl tip. The cells were cultured in 2% fetal bovine serum DMEM with 50 nM BSA or HIMF for four days. More cells migrated out of the original cell colony in the presence of HIMF than those in BSA (FIG. 5A). 5×10^5 bone marrow cells were cultured in transwell plates in the presence of 50 nM BSA or HIMF. The cells were cultured overnight, fixed in pre-cooled methanol and stained by Coomassie Blue solution. The cells growing on the surface of the membrane were removed after staining (FIG. 5B). A Nikon Eclipse microscope was used for the imaging.
BTK stimulated the migration of bone marrow cells. To test whether HIMF stimulates the migration of bone marrow cells, bone marrow cells were cultured in transwell plates in the presence of […] BSA or HIMF. The cells were cultured overnight, fixed in methanol and stained by Coomassie Blue solution. Cells growing on the surface of the membrane were removed by cotton tipped applicators before imaging. […] Cell migration was further determined by partial trypsin digestion culture, leaving the cells to grow in colonies on a cover glass.

[6] = molecular target: T1, BTK; experiment: BTK redistribution in bone marrow cells (immunofluorescence); format: cell-based; conditions: 50 nM HIMF, 5 minutes
Description: FIGS. 3A-3B. BTK redistribution in response to the stimulation of HIMF. Primary cultured bone marrow. Bone marrow cells were cultured on cover glass and then treated with 50 nM BSA (FIG. 3A) or HIMF (FIG. 3B) for five minutes. Cells were fixed by pre-cooled methanol before indirect immunofluorescence. BTK or FYN, a binding partner for BTK, was redistributed in bone marrow cells after the treatment of HIMF.
Immunofluorescence microscopy. Bone marrow or COS-7 cells were cultured on coverslips in DMEM containing 10% FBS and fixed in pre-cooled methanol for 5 minutes. The cells were then permeabilized with 0.2% Triton X-100 in PBS and blocked with 0.5% bovine serum albumin in PBS followed by incubation with the indicated antibodies. FITC-donkey anti-rabbit IgG and Rhodamine-donkey anti-mouse IgG were used as second antibodies. For transfection experiments, cells were cultured overnight and transfected with indicated constructs in serum-free medium for four hours and changed into DMEM containing 10% FBS overnight. Cells were fixed and stained as above. A 510 confocal microscope was used for the imaging.
Translocation of BTK in bone marrow cells in response to the stimulation of HIMF. […] The activation of BTK family tyrosine kinases will result in their stimulated translocation to membrane fractions (24). […]

[7] = molecular target: T1, BTK; experiment: GST pull-down assay; format: binding
Description: FIGS. 1A-1B. BTK is a HIMF-binding molecule. GST-HIMF fusion protein and GST were incubated with glutathione-sepharose beads and then incubated with bone marrow cell lysate respectively in TBST buffer at 4° C. for three hours. The beads were washed five times by TBST and loading buffer was added to the samples. After electrophoresis, the gel was stained by Coomassie Blue. […] GST-HIMF and GST were first bonded to glutathione sepharose and then incubated with the lysate of bone marrow cells (left) or homogenate of ischemic tissue (right) at 4° C. for three hours and then washed by TBST solution three times. After SDS-PAGE and transfer to membrane, the samples were detected by anti-BTK and anti-GST antibodies (FIG. 1B).
GST pull-down assay. Bone marrow cells were cultured in ten 150×25 mm plates until confluence and collected for lysate using TBST buffer. Lysate from ten plates of bone marrow cells was used for HIMF-binding partner screening assay. Hypoxia tissue homogenate was prepared as described above. BL21 bacterial lysates for GST and GST-HIMF were first incubated with glutathione agarose in 0.1% TBST buffer for three hours and then washed three times by 0.1% TBST buffer. The GST and GST-HIMF binding glutathione agaroses were incubated with bone marrow cell lysate or hypoxia tissue homogenate for three hours and then washed 3-5 times before SDS-PAGE.

Molecule: C/C(O)=C(\C#N)C(=O)Nc1cc(Br)ccc1Br [LFM-A13, reference compound]
Inhibition of HIMF-induced bone marrow cell migration ([1]; 25 μM LFM-A13 plus 50 nM HIMF, transwell, 6 hours): inhibited; also recorded: completely blocked

B1: HIMF: Hypoxia-induced mitogenic factor protein (Flag-tagged mouse HIMF) applied to cells and tissue (protein)
chain: DETIEIIVENKVKELLANPANYPSTVTKTLSCTSVKTMNRWASCPAGMTATGCACGFACGSWEIQSGDTCNCLCLLVDWTTARCCQLS
BTK self-phosphorylation (Y223) [2]: stimulate the self-phosphorylation of BTK
Fyn activity (phosphorylation Y416/Y528) [3]: not changed in activity
Angiogenesis in hindlimb ischemia tissues [4]: stimulated angiogenesis
CD34 positive cells in ischemic tissue [4]: increased
Bone marrow cell migration out of the colony versus BSA [5]: more bone marrow cells were stimulated to migrate out of the colony
Bone marrow cell migration (transwell) versus BSA ([1]; 50 nM HIMF, overnight): markedly promoted; also recorded: More cells migrated out of the chamber
BTK translocation in bone marrow cells [6]: rapidly induced recruitment of BTK to the leading edge of cells

Pull-down of BTK from bone marrow cell lysate ([7]; bone marrow cell lysate, GST control did not): pulled down BTK
Binding of BTK from hind limb hypoxic tissue homogenate ([7]; homogenate of mouse hind limb hypoxic tissue, not to GST): shown to bind
B2: GST-HIMF: GST fusion protein of mouse HIMF expressed in BL21 cells (protein)
chain: B1 chain
modifications: left off: a dimerising Fc or GST
notes: GST fusion protein of mouse HIMF expressed in BL21 cells
